Results on one molecule are retold here after US8716246B2, “Azuvirin peptides” (The Regents of the University of California, priority 2011, dated 2014).

Square brackets hold non-standard residues; d marks the D form. Peptide text beside a SMILES is read from it. * marks the point of attachment. Oic = O=C(O)[C@@H]1C[C@@H]2CCCC[C@@H]2N1; Cha = N[C@@H](CC1CCCCC1)C(=O)O; Tle = CC(C)(C)[C@H](N)C(=O)O; Nicotinoyl = O=C(c1cccnc1)*; Acm = CC(=O)NC*

The target in series [1] is rhEphB2/Fc (Homo sapiens, UniProt P29323). The experiment in a line: SPR binding to immobilized rhEphB2/Fc (Biacore 3000). Set-up: Fc; purchased R&D Systems, Inc., Minneapolis, Minn. The protocol: (§1) Binding to selected ephrin receptors was measured by surface plasmon resonance on a Biacore3000 instrument. Commercially available ephrin receptors: EphA2, EphB2 and EphB4 (R&D Systems) were immobilized on a CM-5 chip by amine coupling and tested peptides were passed over a chip surface as analytes.
(§2) Binding studies. Binding studies were performed by surface plasmon resonance (SPR) on a BIAcore 3000 system (BiaCore AB, Piscataway, N.J.). BIAcore CM5 sensor chips were utilized in all experiments. Binding studies were performed in HBS-EP running buffer (pH=7.4) containing 10 mM HEPES, 150 mM NaCl, 3 mM EDTA, and 0.005% polysorbate 20. Commercially available ephrin receptors: EphA2, EphB2 and EphB4 (R&D Systems, Inc., Minneapolis, Minn.) were immobilized on a CM5 sensor chip using the amine coupling method. The chip was activated by mixing 400 mM N-ethyl-N-(3-dimethylaminopropyl)-carbodiimide hydrochloride and 100 mM N-hydroxysuccinimide. Residual reactive groups on the chip surface were blocked using 1.0 M ethanolamine/HCl (pH=8.5). The flow cell-1 chip, which served as a control, lacked immobilized protein but was treated with N-ethyl-N-(3-dimethylaminopropyl)-carbodiimide hydrochloride, N hydroxysuccinimide, and ethanolamine/HCl. Binding signals were corrected for nonspecific binding by subtracting the flow cell-1 signal (blank surface). To regenerate chip surfaces, bound ligands were removed with 10 mM HCl. Data were analyzed with BIAevaluation 4.1 software (Biacore, Piscataway, N.J.).

For series [2], the system named is human red blood cells (hRBCs). How it is done: Human red blood cells (hRBCs). Fresh blood (˜3 ml) was collected from an anonymous donor into a tube that contained heparin as an anticoagulant. An aliquot of blood (200 μl) was removed and washed 4 with 800 μl of cold PBS at room temperature, each centrifugation was for 3 minutes at ˜500×g. A total of 780 μl of supernatant was removed each time. With four washes, this procedure should remove >99.8% of the total serum protein and any heparin anticoagulant. The supernatant was completely removed in the last wash, leaving only the packed red blood cells, which were subsequently diluted 1:20 in PBS to make 5% v/v stock of hRBCs.
Hemolysis assay. The experiments were carried out as previously described. Briefly, 2.5% v/v normal human RBCs were exposed to various concentrations of AzV36-NicL at 37° C. for 30 min. All experiment were carried out in triplicate using 96-well microplate (Costar 3596) and OD at 700 nm was monitored every 30 s. employing the SpectraMAX 250 microplate reader (Molecular Devices, Sunnyvale, Calif.). Controls: PBS, human RBCs, human RBCs+2.5% Triton (100% lysis). The hemolytic effect was calculated as following: […]

Series [3] can be described thus: in vitro. To be noted: for peptide concentration remaining in human serum ± SEM (AUC): 37° C. The protocol: Serum stability. Human blood serum was prepared using BD Vacutainer→Rapid Serum Tubes (RST) (BD Diagnostics, Franklin Lakes, N.J.) according to manufacturer's recommendations. Serum was harvested and either used fresh or stored at −80° C. Stability of the AzV36-NicL in the human serum was determined as previously described. Briefly, 50 μl of an aqueous peptide stock solution (10 mg/ml) was added to 1.95 ml of 25% pooled, non-heat inactivated human serum in PBS and incubated at 37° C. […] The resulting mixtures were kept at 5° C. for 10 min and then centrifuged at 300 g for 5 min. 100 μl of the supernatants were analyzed using analytical ProStar 210 HPLC system with a ProStar 325 Dual Wavelength detector set at 220 nm and 280 nm (Varian Inc., Palo Alto, Calif.). The mobile phases were: Solvent A, 0.1% TFA (trifluoroacetic acid) in water; solvent B, 0.1% TFA in acetonitrile. Experiments were performed using Vydac 218TP54 C18 column, 4.6×250 mm, 5 μM (Grace Vydac, Hesperia, Calif.) in a linear 0 to 100% gradient of solvent B applied over 100 min at 1 ml/min.

The target of series [4] is T1, rhEphB4 (Homo sapiens, UniProt P54760).
T1 construct: purchased R&D Systems, Inc., Minneapolis, Minn
T1 sequence (P54760 16-987): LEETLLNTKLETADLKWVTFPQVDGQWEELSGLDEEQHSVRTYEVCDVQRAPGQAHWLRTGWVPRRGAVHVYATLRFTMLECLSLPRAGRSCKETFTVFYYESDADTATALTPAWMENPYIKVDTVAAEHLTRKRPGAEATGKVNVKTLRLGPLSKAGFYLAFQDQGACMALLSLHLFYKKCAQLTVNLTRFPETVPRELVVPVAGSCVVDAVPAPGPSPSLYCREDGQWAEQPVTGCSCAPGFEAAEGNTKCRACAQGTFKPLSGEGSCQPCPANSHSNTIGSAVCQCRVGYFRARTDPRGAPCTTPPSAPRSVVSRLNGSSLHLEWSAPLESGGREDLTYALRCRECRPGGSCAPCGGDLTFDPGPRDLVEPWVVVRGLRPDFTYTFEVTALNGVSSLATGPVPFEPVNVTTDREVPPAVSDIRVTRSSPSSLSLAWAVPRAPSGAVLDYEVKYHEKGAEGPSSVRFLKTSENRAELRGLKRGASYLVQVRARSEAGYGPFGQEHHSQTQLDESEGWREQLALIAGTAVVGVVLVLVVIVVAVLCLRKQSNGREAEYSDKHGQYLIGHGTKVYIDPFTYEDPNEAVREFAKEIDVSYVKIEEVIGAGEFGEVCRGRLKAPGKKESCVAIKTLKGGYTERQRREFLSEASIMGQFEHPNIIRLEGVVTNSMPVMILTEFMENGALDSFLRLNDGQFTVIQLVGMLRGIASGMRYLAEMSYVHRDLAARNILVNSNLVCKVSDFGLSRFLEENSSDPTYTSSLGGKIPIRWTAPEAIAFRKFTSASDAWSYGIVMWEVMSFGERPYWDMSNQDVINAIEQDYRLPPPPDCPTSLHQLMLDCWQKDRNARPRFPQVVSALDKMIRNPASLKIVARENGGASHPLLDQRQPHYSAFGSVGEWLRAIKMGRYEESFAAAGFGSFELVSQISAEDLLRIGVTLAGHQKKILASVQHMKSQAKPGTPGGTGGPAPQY
In words: SPR binding to immobilized rhEphB4 (Biacore 3000). How it is done: as §1, §2

The mark [5] stands for this setting: human, 25% pooled, non-heat inactivated human serum in PBS.

For `CC(=O)NCSC[C@H](NC(=O)[C@H](CC1CCCCC1)NC(=O)[C@H](CC1CCCCC1)NC(=O)[C@@H](CCCCNC(=O)c1cccnc1)NC(=O)[C@@H](N)Cc1ccc(O)cc1)C(=O)N[C@H](C(=O)N[C@@H](CC1CCCCC1)C(=O)N1[C@H](C(=O)N[C@H](CCCNC(=N)N)C(=O)N[C@@H](Cc2c[nH]cn2)C(=O)N[C@@H](CCCNC(=N)N)C(=O)N[C@H](C(=O)N[C@@H](CC2CCCCC2)C(=O)N[C@@H](CSCNC(C)=O)C(=O)N[C@H](CCCCN)C(N)=O)[C@@H](C)O)C[C@@H]2CCCC[C@@H]21)C(C)(C)C` [AzV36-NicL, YkNic-Cha-Cha-Cam-Tle-Cha-Oic-rHRT-Cha-Cam-k-CONH] (H-Y[dK](Nicotinoyl)[Cha][Cha]C(Acm)[Tle][Cha][Oic][dR]HRT[Cha]C(Acm)[dK]-NH2), the values for the dissociation constant Kd in series [1] and in series [4] were 14.3 ± 3.3 nM and 5.83 ± 1.4 nM, respectively. In series [2] (20 μM peptide (highest tested), 2.5% hRBCs, 37° C., 30 min), the “Hemolysis ± SEM” value came to 9.3±3.0%. Further, in series [2] (≦10 μM peptide), the “hemolytic effect (in words)” value was “non-hemolytic”. The “peptide concentration remaining in human serum ± SEM (AUC)” value in series [3] (24 h, 25% human serum in PBS) is recorded as 100±0.64%; in series [3] (6 days) it was 97.8±2.86%. Also, the amount remaining at 24 h, 0.25 mg/ml in series [3] (setting [5]) is 100 ± 0.64%. In series [3] (setting [5]), this molecule had a fraction remaining at 144 h, 0.25 mg/ml of 97.8 ± 2.86%.
